{"source": "patent US20260137779A1", "key": {"[1]": {"target": "human CD3 on T (Jurkat) cells (human) (UniProt P07766)", "assay": "flow cytometry; PerCP-anti-hCD3e (OKT3) staining of Jurkat cells; supernatant of untransfected 293T cells (same control values as in paragraph 403)"}, "[2]": {"target": "human CD3 on T (Jurkat) cells (human) (UniProt P07766)", "assay": "flow cytometry; PerCP-anti-hCD3e (OKT3) staining of Jurkat cells; supernatant of GFP-transfected 293T cells, no competitor"}, "[3]": {"target": "human CD3 on T (Jurkat) cells (human) (UniProt P07766)", "assay": "flow cytometry; PerCP-anti-hCD3e (OKT3) staining of Jurkat cells; media alone, no competitor"}, "[4]": {"target": "human CD3 on T (Jurkat) cells (human) (UniProt P07766)", "assay": "flow cytometry; PerCP-anti-hCD3e (OKT3) staining of Jurkat cells; media alone, no competitor (same control values as in paragraph 403)"}, "[5]": {"target": "human CD3 on T (Jurkat) cells (human) (UniProt P07766)", "assay": "flow cytometry; PerCP-anti-hCD3e (OKT3) staining of Jurkat cells; supernatant of GFP-transfected 293T cells (same control values as in paragraph 403)"}, "[6]": {"target": "human CD3 on T (Jurkat) cells (human) (UniProt P07766)", "assay": "flow cytometry; PerCP-anti-hCD3e (OKT3) staining of Jurkat cells; supernatant of vector #1323, which lacks a secretion peptide (dimert not secreted)"}, "[7]": {"target": "human CD3 on T (Jurkat) cells (human) (UniProt P07766)", "assay": "flow cytometry; PerCP-anti-hCD3e (OKT3) staining of Jurkat cells; supernatant of untransfected 293T cells, no competitor"}, "[8]": {"target": "human CD3 on T (Jurkat) cells (human) (UniProt P07766)", "assay": "flow cytometry; PerCP-anti-hCD3e (OKT3) staining of Jurkat cells; supernatant of vector #1104, which lacks a secretion peptide (dimert not secreted)"}}, "data": [{"substance": "PerCP-anti-hCD3e antibody (#OKT3)", "values": [{"measurement": "% CD3 positive (Q2+Q3)", "setting": "[1]", "result": 79.2, "unit": "%"}, {"measurement": "% CD3 positive (Q2+Q3)", "setting": "[2]", "result": 78.7, "unit": "%"}, {"measurement": "% CD3 positive (Q2+Q3)", "setting": "[3]", "result": 77.6, "unit": "%"}, {"measurement": "% CD3 positive (Q2+Q3)", "setting": "[4]", "result": 77.6, "unit": "%"}, {"measurement": "% CD3 positive (Q2+Q3)", "setting": "[5]", "result": 78.7, "unit": "%"}, {"measurement": "% CD3 positive (Q2+Q3)", "setting": "[6]", "result": 79.4, "unit": "%"}, {"measurement": "% CD3 positive (Q2+Q3)", "setting": "[7]", "result": 79.2, "unit": "%"}, {"measurement": "% CD3 positive (Q2+Q3)", "setting": "[8]", "result": 77.7, "unit": "%"}]}]}
